How the values were obtained:
human factor D [1] = target: T1, human factor D (human, UniProt P00746 26-253); experiment: SPR Biacore T200, Fab captured by anti-huFab, human fD injected, 25 C
T1 construct: also called fD
Protocol: Antibody Fab fragments were immobilized on a Series S CM5 sensor chip using the anti-huFab capture kit (GE healthcare Cat. #28-9583-25) following a protocol described by the manufacturer. Kinetics of binding were calculated from sensorgrams recorded for injection of 60 μL aliquots of solutions of human factor D varied in concentration from 0.39 nM to 25 nM in 2-fold increments. The flow rate was 30 μL/minute, the running buffer was HBS-P+, the temperature of analysis was 25° C., real-time reference cell subtraction was employed, and dissociation following factor D injection was followed for 10 minutes. After subtraction of the sensorgram observed for injection of running buffer, data were analyzed according to a 1:1 model using BiaEval software v4.1 (GE Healthcare) to extract the kinetics and affinity constants.

human factor D [2] = target: T1, human factor D; experiment: SPR total binding to fD over time; Fab 100 mg/mL in PBS, 37 C, 10 weeks (FIG. 2B)
human factor D [3] = target: T1, human factor D; experiment: SPR total binding to fD over time; Fab 10 mg/mL in pH 5.5 buffer (FIG. 2A), one month
human factor D [4] = target: T1, human factor D; experiment: SPR, captured Fab, fD injected

T1 sequence (P00746 26-253 limits assumed): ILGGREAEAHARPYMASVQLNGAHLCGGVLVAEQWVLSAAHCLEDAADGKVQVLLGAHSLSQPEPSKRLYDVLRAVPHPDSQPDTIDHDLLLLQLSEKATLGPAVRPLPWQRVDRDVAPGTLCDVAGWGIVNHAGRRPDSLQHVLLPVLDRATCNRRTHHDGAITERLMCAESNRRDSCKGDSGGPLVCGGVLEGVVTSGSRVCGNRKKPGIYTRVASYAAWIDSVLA

Kd (human factor D [1])	loss in binding (human factor D [2])	loss in binding (human factor D [3])	fold decrease in affinity against SIESD.N103S (AFD.v14) (human factor D [4])	Binder
≤ 0.01 nM	~20%	~40%	–	AFD.v6 (TM; VL-D30E:D31S VH-D62E) (Fab, V domains shown, Fab variant of aFD.WT; also called TM (AFD.v6)) VH: EVQLVQSGPELKKPGASVKVSCKASGYTFTNYGMNWVRQAPGQGLEWMGWINTYTGETTYAEDFKGRFVFSLDTSVSTAYLQISSLKAEDTAVYYCEREGGVNNWGQGTLVTVSS VL: DIQVTQSPSSLSASVGDRVTITCITSTDIESDMNWYQQKPGKVPKLLISGGNTLRPGVPSRFSGSGSGTDFTLTISSLQPEDVATYYCLQSDSLPYTFGQGTKVEIKR
0.102 nM	–	–	4 fold	AFD.v15 (SIESD.N103S.D92E; VL-D28S:D30E:D31S:D92E VH-D62E:N103S) (Fab, V domains shown, Fab variant of aFD.WT) VH: EVQLVQSGPELKKPGASVKVSCKASGYTFTNYGMNWVRQAPGQGLEWMGWINTYTGETTYAEDFKGRFVFSLDTSVSTAYLQISSLKAEDTAVYYCEREGGVSNWGQGTLVTVSS VL: DIQVTQSPSSLSASVGDRVTITCITSTSIESDMNWYQQKPGKVPKLLISGGNTLRPGVPSRFSGSGSGTDFTLTISSLQPEDVATYYCLQSESLPYTFGQGTKVEIKR

Source: patent US20170143843A1 (Genentech, published 2017)
